Laboratory results: paper PMC7915732 (2021)
Bridge positions count the residues as written; N and C are the ends. Ends that are not written are not given here.

What was measured:
cyclo[E-LYLAYPAH-K] [1] = biological target: T1, cyclo[E-LYLAYPAH-K] (synthetic construct, lactam 1-10); assay: yeast surface titration
T1 chain: ELYLAYPAHK

cyclo[E-LYLAYPAH-K] [2] = biological target: T2, cyclo[E-LYLAYPAH-K] (synthetic construct, lactam 1-10); assay: resin adsorption isotherm
T2 chain: ELYLAYPAHK

- Kd (cyclo[E-LYLAYPAH-K] [1]): 680 nM
- Kd (cyclo[E-LYLAYPAH-K] [2]): 2640 nM
B1: YAP WW domains 165-271 (protein)
chain: FEIPDDVPLPAGWEMAKTSSGQRYFLNHIDQTTTWQDPRKAMLSQMNVTAPTSPPVQQNMMNSASGPLPDGWEQAMTQDGEIYYINHKNKTTSWLDPRLDPRFAMNQ
